This passage reports IC50 results from patent US20040146519A1 (published 2004).

Like-named read-outs stand apart in the source and are kept apart here.

Assay [1] deals with HLA-B*5301 (human). Nature of the assay: inhibition of 125I probe peptide, purified HLA.
The target in assay [2] is HLA-B*5101 (human). The assay is described as follows: inhibition of 125I probe peptide, purified HLA.
Assay [3] has as its target HLA-A*6802 (human). Nature of the assay: competition with 125I probe peptide for purified HLA.
Assay [4] deals with HLA-A*0203 (human). Described as above.
Assay [5] has as its target HLA-A*0201 (human). The assay is described as above.
Assay [6] concerns the target HLA-A*0206 (human). The assay is described as above.
For assay [7], the target named is HLA-A*0202 (human). The assay is described as above.
In assay [8] the target is HLA-B*5401 (human). Nature of the assay: inhibition of 125I probe peptide, purified HLA.
Assay [9] deals with HLA-B*0702 (human). The assay is described as follows: inhibition of 125I probe peptide, purified HLA.
The target of assay [10] is HLA-A*0201 (human). The assay is described as follows: inhibition of 125I probe peptide, purified HLA.
Assay [11] has as its target HLA-A*0203 (human). Nature of the assay: inhibition of 125I probe peptide, purified HLA.
Assay [12] deals with HLA-B*3501 (human). Nature of the assay: inhibition of 125I probe peptide, purified HLA.
Assay [13] concerns the target HLA-DRB1*0701 (human). The assay is described as follows: inhibition of 125I probe peptide, purified HLA.
In assay [14] the target is HLA-A*0202 (human). The assay is described as follows: inhibition of 125I probe peptide, purified HLA.
Assay [15] concerns the target HLA-A*1101 (human). The assay is described as follows: competition with 125I probe peptide for purified HLA.
Assay [16] addresses HLA-A*0301 (human). The assay is described as above.
The target of assay [17] is HLA-A*3301 (human). Described as above.
For assay [18], the target named is HLA-A*6801 (human). Described as above.
Assay [19] has as its target HLA-A*3101 (human). The description is as above.
The target of assay [20] is HLA-DRB1*1302 (human). The assay is described as follows: competition with 125I probe peptide, purified HLA.
The target in assay [21] is HLA-DRB1*0301 (human). Nature of the assay: competition with 125I probe peptide, purified HLA.
Assay [22] addresses HLA-DRB1*0301 (human). Nature of the assay: competition with 125I probe peptide, purified HLA. The source holds these as a separate data set.

For the molecule FPPHRWCIPI [CEA.6.F1I10], the IC50 in assay [1] worked out at 8460 nM; in assay [2] it was 423 nM.

In assay [3], IMIGVLVGVA [CEA.691 (10-mer IMIGVLVGVA)] registered an IC50 of 1510 nM.

On to GIMIGVLVGV [CEA.690], for which the IC50 is 31 nM in assay [4]; 64 nM in [5]; 500 nM in assay [3]; 142 nM in assay [6]; 205 nM in assay [7].

Take FPNNNGTI [CEA.646.F1]: the IC50 turned out to be 9300 nM in [1], 313 nM in assay [8], 275 nM in assay [9] and 19 nM in assay [2].

For the molecule ILIGVLVGV [CEA.691.L2], the results for the IC50 in assay [10] and in assay [11] were 22 nM and 3.2 nM, respectively.

With FPWQRLLL [CEA.13.F1, 8 AA], the IC50 was determined as 443 nM in [1], 71 nM in assay [8], 1760 nM in assay [12] and 229 nM in [2].

Take QLIGYVIGV [CEA.78L2V9]: the IC50 in assay [7] is 5.9 nM.

As for FPDAPTISPI [CEA.236.F1I10], the IC50 amounted to 1020 nM in [1], 278 nM in [8], 183 nM in assay [9] and 1330 nM in assay [12].

For the molecule FPDAPTISPL [CEA.236.F1], the IC50 in assay [1] was determined as 1940 nM; in assay [8], 714 nM; in assay [12], 327 nM; in assay [2] it was 290 nM.

As to LWWVNNQSLPVSPRL [CEA.177], inhibition in assay [13] was half-maximal at 3050 nM (IC50).

As to FPWQRLLLTI [CEA.13.F1I10], the IC50 in assay [1] came out at 78 nM; in assay [8], 4.2 nM; in assay [9] it was 290 nM; in assay [12], 2120 nM.

Regarding FPQHLFGYSI [CEA.58.F1I10], the IC50 came to 229 nM in assay [9], 900 nM in assay [12] and 204 nM in assay [2].

In the case of FPSAPPHRI [CEA.3.F1I9], the IC50 came out at 258 nM in assay [1], 14 nM in assay [8], 3600 nM in assay [12] and 15 nM in assay [2].

Consider FPQQHTQVLF [CEA.632.F1, 10 AA], for which the IC50 in assay [8] is 556 nM; in assay [12], 51 nM.

For the molecule FPQQHTQVLI [CEA.632.F1I10], the IC50 amounted to 278 nM in assay [8], 134 nM in assay [9] and 809 nM in assay [12].

With FPHRWCIPI [CEA.7.F1I9], the IC50 worked out at 135 nM in assay [1], 1.9 nM in assay [8], 2.5 nM in assay [9] and 257 nM in [12].

In assay [14], QLIGYVIGV [CEA.78.L2V9] had an IC50 of 5.9 nM.

In the case of TVSPSYTYYR [CEA.419.V2], the IC50 is 3000 nM in assay [15], 2340 nM in assay [16] and 264 nM in assay [17].

For the molecule TVSPSYTYYK [CEA.419.V2K10], the IC50 in [18] stood at 6.7 nM; in assay [19], 3670 nM; in assay [15] it was 43 nM.

In the case of RVLTLLSVTK [CEA.376.V2K10], the results for the IC50 in assay [18] and in [19] were 5710 nM and 164 nM, respectively.

Turning to FPQQHTQI [CEA.632.F1, 8 AA], the IC50 amounted to 7750 nM in [1] and 220 nM in assay [9].

Regarding ALVGIMIGV [CEA.687L2], the IC50 in assay [4] turned out to be 31 nM; in assay [3] it was 102 nM.

Take FPAYSGREI [CEA.92.F1]: the IC50 in assay [1] stood at 664 nM; in [9], 2.1 nM; in assay [12], 7200 nM; in assay [2], 183 nM.

Take FPQQHTQVI [CEA.632.F1I9]: the results for the IC50 in assay [8], in assay [9] and in assay [12] were 1.7 nM, 3.4 nM and 139 nM, respectively.

As to FPQQHTQVL [CEA.632.F1, 9 AA], the IC50 in [1] stood at 93 nM; in assay [9], 0.9 nM; in assay [2], 183 nM.

For the molecule RLQLSNDNRTLTLLS [CEA.368], the IC50 worked out at 729 nM in assay [20], 938 nM in [21] and 938 nM in assay [22].

Consider RVLTLFNVTK [CEA.554.V42K10], for which the results for the IC50 in assay [18], in assay [19] and in assay [15] were 2350 nM, 234 nM and 32 nM, respectively.

FPGLSAGATI [CEA.680.F1, 10 AA]: the IC50 turned out to be 1480 nM in assay [1], 105 nM in assay [8] and 212 nM in assay [9].

As to ILIGVLVGV [CEA.691L2], the IC50 in assay [4] turned out to be 3.2 nM; in assay [5] it was 22 nM.

FPVSPRLQI [CEA.363.F1I9]: the IC50 stood at 216 nM in assay [1] and 5540 nM in assay [12].

On to FPVSPRLQL [CEA.363.F1], for which the IC50 turned out to be 310 nM in assay [1], 0.7 nM in assay [9], 600 nM in assay [12] and 82 nM in [2].

As for FPGLSAGI [CEA.680.F1I8], the values for the IC50 in assay [1], in assay [12] and in assay [2] were 332 nM, 758 nM and 9 nM, respectively.

With FPQHLFGI [CEA.58.F1, 8 AA], the IC50 in assay [1] came to 1070 nM; in assay [8], 0.4 nM; in [9], 393 nM; in [2] it was 212 nM.

Regarding YLCGIQNSV [CEA.569L2], the IC50 in [3] is 3480 nM; in assay [6] it was 31 nM.

For the molecule FPGVNLSL [CEA.428.F1], the IC50 was 95 nM in assay [1], 115 nM in assay [8], 19 nM in assay [9] and 277 nM in assay [12].

Usually IC50 stands for the concentration that gives 50% inhibition. Lower therefore signals inhibition by little substance.
